{"source": "patent US20060089489A1", "about": "(MATSUSHITA ELECTRIC INDUSTRIAL, published 2006)", "target": "the molecule itself", "assay": "CD spectrometry of 300 uM peptide in phosphate buffer pH 7.5 (self-assembly into nanofiber)", "data": [{"protein": "EFIVIFK (Synthetic designed peptide that self-assembles into amyloid-like nanofibers)", "note": "[Glu-Phe-Ile-Val-Ile-Phe-Lys peptide (EK7aa)]", "values": [{"measurement": "binding result", "value": "binds"}]}]}
